Reference: PMC8106667 (Molecular cell, 2021)

T1: MBP-GFP-ORC1 wild type, full length (human, UniProt Q13415 1-861)
T1 sequence (looked up): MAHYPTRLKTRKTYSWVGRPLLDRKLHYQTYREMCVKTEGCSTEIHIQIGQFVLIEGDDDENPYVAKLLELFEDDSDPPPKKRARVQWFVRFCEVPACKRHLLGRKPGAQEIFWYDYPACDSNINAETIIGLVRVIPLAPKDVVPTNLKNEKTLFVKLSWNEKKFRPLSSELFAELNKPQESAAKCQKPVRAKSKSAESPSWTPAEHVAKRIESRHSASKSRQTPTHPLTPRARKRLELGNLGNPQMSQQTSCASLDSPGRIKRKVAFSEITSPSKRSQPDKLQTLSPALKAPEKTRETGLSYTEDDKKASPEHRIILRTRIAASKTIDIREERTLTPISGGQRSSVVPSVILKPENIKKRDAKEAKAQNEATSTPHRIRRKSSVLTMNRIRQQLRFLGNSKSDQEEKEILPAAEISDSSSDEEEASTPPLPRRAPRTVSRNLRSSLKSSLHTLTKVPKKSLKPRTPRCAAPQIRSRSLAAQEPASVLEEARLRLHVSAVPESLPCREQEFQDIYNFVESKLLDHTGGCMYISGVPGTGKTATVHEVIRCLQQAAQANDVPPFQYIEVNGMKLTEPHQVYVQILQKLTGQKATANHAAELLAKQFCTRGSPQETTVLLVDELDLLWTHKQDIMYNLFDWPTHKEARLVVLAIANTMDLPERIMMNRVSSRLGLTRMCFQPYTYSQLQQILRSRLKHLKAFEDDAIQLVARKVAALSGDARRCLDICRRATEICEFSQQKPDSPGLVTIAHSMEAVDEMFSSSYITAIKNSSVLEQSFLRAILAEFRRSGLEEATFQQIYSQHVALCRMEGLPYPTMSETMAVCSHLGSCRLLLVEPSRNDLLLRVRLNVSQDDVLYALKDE

B1: GST-CDC6 1–110 (domain or fragment, human, UniProt Q99741 1-110, looked up)
chain: MPQTRSQAQATISFPKRKLSRALNKAKNSSDAKLEPTNVQTVTCSPRVKALPLSPRKRLGDDNLCNTPHLPPCSPPKQGKKENGPPHSHTLKGRRLVFDNQLTIKSPSKR
B2: GST-CDC6 triple mutant (K92A, R94A and R95A) (natural protein, human, UniProt Q99741 1-560, looked up)
chain: MPQTRSQAQATISFPKRKLSRALNKAKNSSDAKLEPTNVQTVTCSPRVKALPLSPRKRLGDDNLCNTPHLPPCSPPKQGKKENGPPHSHTLAGAALVFDNQLTIKSPSKRELAKVHQNKILSSVRKSQEITTNSEQRCPLKKESACVRLFKQEGTCYQQAKLVLNTAVPDRLPAREREMDVIRNFLREHICGKKAGSLYLSGAPGTGKTACLSRILQDLKKELKGFKTIMLNCMSLRTAQAVFPAIAQEICQEEVSRPAGKDMMRKLEKHMTAEKGPMIVLVLDEMDQLDSKGQDVLYTLFEWPWLSNSHLVLIGIANTLDLTDRILPRLQAREKCKPQLLNFPPYTRNQIVTILQDRLNQVSRDQVLDNAAVQFCARKVSAVSGDVRKALDVCRRAIEIVESDVKSQTILKPLSECKSPSEPLIPKRVGLIHISQVISEVDGNRMTLSQEGAQDSFPLQQKILVCSLMLLIRQLKIKEVTLGKLYEAYSKVCRKQQVAAVDQSECLSLSGLLEARGILGLKRNKETRLTKVFFKIEEKEIEHALKDKALIGNILATGLP
B3: GST-CDC6 Δ11–20 (natural protein, human, UniProt Q99741 1-560, looked up)
chain: MPQTRSQAQARALNKAKNSSDAKLEPTNVQTVTCSPRVKALPLSPRKRLGDDNLCNTPHLPPCSPPKQGKKENGPPHSHTLKGRRLVFDNQLTIKSPSKRELAKVHQNKILSSVRKSQEITTNSEQRCPLKKESACVRLFKQEGTCYQQAKLVLNTAVPDRLPAREREMDVIRNFLREHICGKKAGSLYLSGAPGTGKTACLSRILQDLKKELKGFKTIMLNCMSLRTAQAVFPAIAQEICQEEVSRPAGKDMMRKLEKHMTAEKGPMIVLVLDEMDQLDSKGQDVLYTLFEWPWLSNSHLVLIGIANTLDLTDRILPRLQAREKCKPQLLNFPPYTRNQIVTILQDRLNQVSRDQVLDNAAVQFCARKVSAVSGDVRKALDVCRRAIEIVESDVKSQTILKPLSECKSPSEPLIPKRVGLIHISQVISEVDGNRMTLSQEGAQDSFPLQQKILVCSLMLLIRQLKIKEVTLGKLYEAYSKVCRKQQVAAVDQSECLSLSGLLEARGILGLKRNKETRLTKVFFKIEEKEIEHALKDKALIGNILATGLP
B4: GST-CDC6 Δ21–30 (natural protein, human, UniProt Q99741 1-560, looked up)
chain: MPQTRSQAQATISFPKRKLSDAKLEPTNVQTVTCSPRVKALPLSPRKRLGDDNLCNTPHLPPCSPPKQGKKENGPPHSHTLKGRRLVFDNQLTIKSPSKRELAKVHQNKILSSVRKSQEITTNSEQRCPLKKESACVRLFKQEGTCYQQAKLVLNTAVPDRLPAREREMDVIRNFLREHICGKKAGSLYLSGAPGTGKTACLSRILQDLKKELKGFKTIMLNCMSLRTAQAVFPAIAQEICQEEVSRPAGKDMMRKLEKHMTAEKGPMIVLVLDEMDQLDSKGQDVLYTLFEWPWLSNSHLVLIGIANTLDLTDRILPRLQAREKCKPQLLNFPPYTRNQIVTILQDRLNQVSRDQVLDNAAVQFCARKVSAVSGDVRKALDVCRRAIEIVESDVKSQTILKPLSECKSPSEPLIPKRVGLIHISQVISEVDGNRMTLSQEGAQDSFPLQQKILVCSLMLLIRQLKIKEVTLGKLYEAYSKVCRKQQVAAVDQSECLSLSGLLEARGILGLKRNKETRLTKVFFKIEEKEIEHALKDKALIGNILATGLP
B5: GST-CDC6 Δ51–70 (natural protein, human, UniProt Q99741 1-560, looked up)
chain: MPQTRSQAQATISFPKRKLSRALNKAKNSSDAKLEPTNVQTVTCSPRVKAPPCSPPKQGKKENGPPHSHTLKGRRLVFDNQLTIKSPSKRELAKVHQNKILSSVRKSQEITTNSEQRCPLKKESACVRLFKQEGTCYQQAKLVLNTAVPDRLPAREREMDVIRNFLREHICGKKAGSLYLSGAPGTGKTACLSRILQDLKKELKGFKTIMLNCMSLRTAQAVFPAIAQEICQEEVSRPAGKDMMRKLEKHMTAEKGPMIVLVLDEMDQLDSKGQDVLYTLFEWPWLSNSHLVLIGIANTLDLTDRILPRLQAREKCKPQLLNFPPYTRNQIVTILQDRLNQVSRDQVLDNAAVQFCARKVSAVSGDVRKALDVCRRAIEIVESDVKSQTILKPLSECKSPSEPLIPKRVGLIHISQVISEVDGNRMTLSQEGAQDSFPLQQKILVCSLMLLIRQLKIKEVTLGKLYEAYSKVCRKQQVAAVDQSECLSLSGLLEARGILGLKRNKETRLTKVFFKIEEKEIEHALKDKALIGNILATGLP
B6: GST-CDC6 Δ71–90 (natural protein, human, UniProt Q99741 1-560, looked up)
chain: MPQTRSQAQATISFPKRKLSRALNKAKNSSDAKLEPTNVQTVTCSPRVKALPLSPRKRLGDDNLCNTPHLLKGRRLVFDNQLTIKSPSKRELAKVHQNKILSSVRKSQEITTNSEQRCPLKKESACVRLFKQEGTCYQQAKLVLNTAVPDRLPAREREMDVIRNFLREHICGKKAGSLYLSGAPGTGKTACLSRILQDLKKELKGFKTIMLNCMSLRTAQAVFPAIAQEICQEEVSRPAGKDMMRKLEKHMTAEKGPMIVLVLDEMDQLDSKGQDVLYTLFEWPWLSNSHLVLIGIANTLDLTDRILPRLQAREKCKPQLLNFPPYTRNQIVTILQDRLNQVSRDQVLDNAAVQFCARKVSAVSGDVRKALDVCRRAIEIVESDVKSQTILKPLSECKSPSEPLIPKRVGLIHISQVISEVDGNRMTLSQEGAQDSFPLQQKILVCSLMLLIRQLKIKEVTLGKLYEAYSKVCRKQQVAAVDQSECLSLSGLLEARGILGLKRNKETRLTKVFFKIEEKEIEHALKDKALIGNILATGLP
B7: MBP-ORC1 wild type, full length (natural protein, human, UniProt Q13415 1-861, looked up)
chain: MAHYPTRLKTRKTYSWVGRPLLDRKLHYQTYREMCVKTEGCSTEIHIQIGQFVLIEGDDDENPYVAKLLELFEDDSDPPPKKRARVQWFVRFCEVPACKRHLLGRKPGAQEIFWYDYPACDSNINAETIIGLVRVIPLAPKDVVPTNLKNEKTLFVKLSWNEKKFRPLSSELFAELNKPQESAAKCQKPVRAKSKSAESPSWTPAEHVAKRIESRHSASKSRQTPTHPLTPRARKRLELGNLGNPQMSQQTSCASLDSPGRIKRKVAFSEITSPSKRSQPDKLQTLSPALKAPEKTRETGLSYTEDDKKASPEHRIILRTRIAASKTIDIREERTLTPISGGQRSSVVPSVILKPENIKKRDAKEAKAQNEATSTPHRIRRKSSVLTMNRIRQQLRFLGNSKSDQEEKEILPAAEISDSSSDEEEASTPPLPRRAPRTVSRNLRSSLKSSLHTLTKVPKKSLKPRTPRCAAPQIRSRSLAAQEPASVLEEARLRLHVSAVPESLPCREQEFQDIYNFVESKLLDHTGGCMYISGVPGTGKTATVHEVIRCLQQAAQANDVPPFQYIEVNGMKLTEPHQVYVQILQKLTGQKATANHAAELLAKQFCTRGSPQETTVLLVDELDLLWTHKQDIMYNLFDWPTHKEARLVVLAIANTMDLPERIMMNRVSSRLGLTRMCFQPYTYSQLQQILRSRLKHLKAFEDDAIQLVARKVAALSGDARRCLDICRRATEICEFSQQKPDSPGLVTIAHSMEAVDEMFSSSYITAIKNSSVLEQSFLRAILAEFRRSGLEEATFQQIYSQHVALCRMEGLPYPTMSETMAVCSHLGSCRLLLVEPSRNDLLLRVRLNVSQDDVLYALKDE

Target: B7
Assay: pull-down

Binding result, binds:
B1
B2
B3
B4
B5
B6

Target: T1, MBP-GFP-ORC1 wild type, full length
Assay: pull-down

Binding result, binds:
B7
